T1: CD73 (as used in the affinity measurements) (UniProt P21589 27-549, limits assumed)
T1 construct: also called CD73 antigen; 5'-nucleotidase
T1 sequence (looked up): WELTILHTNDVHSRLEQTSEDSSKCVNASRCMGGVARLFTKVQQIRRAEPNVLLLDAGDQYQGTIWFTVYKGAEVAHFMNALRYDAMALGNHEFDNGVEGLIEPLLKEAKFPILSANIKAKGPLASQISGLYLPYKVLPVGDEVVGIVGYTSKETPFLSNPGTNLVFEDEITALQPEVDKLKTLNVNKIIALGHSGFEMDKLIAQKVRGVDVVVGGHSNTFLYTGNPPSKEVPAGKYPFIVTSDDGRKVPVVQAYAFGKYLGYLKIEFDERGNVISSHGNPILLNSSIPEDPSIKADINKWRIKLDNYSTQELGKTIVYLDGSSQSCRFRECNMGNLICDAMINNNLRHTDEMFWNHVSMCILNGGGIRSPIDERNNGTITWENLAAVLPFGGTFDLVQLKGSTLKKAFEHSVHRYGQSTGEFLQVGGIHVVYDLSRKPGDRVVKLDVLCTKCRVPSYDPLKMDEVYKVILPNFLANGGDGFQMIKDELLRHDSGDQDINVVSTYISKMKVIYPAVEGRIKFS


biological target: T1, CD73 (as used in the affinity …); assay: affinity measurement, method not stated

Kd | Binder
19.5 nM | CPX-003 (humanized 1E9 antibody, BAP094-hum03) (antibody, human IgG1, V domains shown) VH: QVQLVQSGAEVKKPGASVKVSCKASGYTFTSYWITWVRQARGQRLEWIGDIYPGSGNTNYNEKFKTRVTITADKSTSTAYMELSSLRSEDTAVYYCAKEGGLTTEDYALDYWGQGTLVTVSS VL: EIVLTQSPDFQSVTPKEKVTITCRASKNVSTSGYSYMHWYQQKPGKAPKLLIYLASNLESGIPPRFSGSGYGTDFTLTINNIESEDAAYYFCQHSRELPFTFGQGTKVEI
7.1 nM | CPX-006 (humanized 1E9 antibody; BAP094-hum06-HC with BAP094-hum07-LC) (antibody, V domains shown, also called anti-CD73 (CPX-006)) VH: QVQLVQSGAEVEKPGASVKVSCKASGYTFTSYWITWVRQAPGQGLEWMGDIYPGSGNTNYNEKFKTRVTITADKSTSTAYMELSSLRSEDTAVYYCAKEGGLTTEDYALDYWGQGTLVTVSS VL: EIVLTQSPATLSLSPGERATLSCRASKNVSTSGYSYMHWYQQKPGQAPRLLIYLASNLESGIPPRFSGSGYGTDFTLTINNIESEDAAYYFCQHSRELPFTFGQGTKVEIK
6.9 nM | CPX-005 (humanized 1E9 antibody, BAP094-hum06) (antibody, human IgG1, V domains shown) VH: QVQLVQSGAEVEKPGASVKVSCKASGYTFTSYWITWVRQAPGQGLEWMGDIYPGSGNTNYNEKFKTRVTITADKSTSTAYMELSSLRSEDTAVYYCAKEGGLTTEDYALDYWGQGTLVTVSS VL: AIQLTQSPSSLSASVGDRVTITCRASKNVSTSGYSYMHWYQQKPGQAPRLLIYLASNLESGVPSRFSGSGSGTDFTFTISSLEAEDAATYYCQHSRELPFTFGQGTKVEIK
15.9 nM | CPX-007 (humanized 1E9 antibody; BAP094-hum03-HC with BAP094-hum07-LC) (antibody, human IgG1, V domains shown) VH: QVQLVQSGAEVKKPGASVKVSCKASGYTFTSYWITWVRQARGQRLEWIGDIYPGSGNTNYNEKFKTRVTITADKSTSTAYMELSSLRSEDTAVYYCAKEGGLTTEDYALDYWGQGTLVTVSS VL: EIVLTQSPATLSLSPGERATLSCRASKNVSTSGYSYMHWYQQKPGQAPRLLIYLASNLESGIPPRFSGSGYGTDFTLTINNIESEDAAYYFCQHSRELPFTFGQGTKVEIK
9.4 nM | CPX-002 (chimeric 1E9 antibody, clone BAP094-01) (antibody, human IgG1, V domains shown, also called chimeric antibody) VH: QVQLQQPGAELVKPGASVKMSCKASGYTFTSYWITWVKQRPGQGLEWIGDIYPGSGNTNYNEKFKTKATLTVDTSSSTAYMQLSSLTSEDSAVYYCAKEGGLTTEDYALDYWGQGTLVTVSS VL: DIVLTQSPASLAVSLGQRATISCRASKNVSTSGYSYMHWYQQKPGQPPKLLIYLASNLESGVPTRFSGSGSGTDFTLNIHPVEEEDAATYYCQHSRELPFTFGSGTKLEIK
17.8 nM | CPX-004 (humanized 1E9 antibody, BAP094-hum05) (antibody, human IgG1, V domains shown) VH: EVQLVQSGAEVKKPGATVKISCKVSGYTFTSYWITWIRQPPGKGLEWIGDIYPGSGNTNYNEKFKTRVTISADKSISTAYLQWSSLKASDTAMYYCAKEGGLTTEDYALDYWGQGTLVTVSS VL: DVVMTQSPLSLPVTLGQPASISCRASKNVSTSGYSYMHWYQQKPGQAPRLLIYLASNLESGIPPRFSGSGYGTDFTLTINNIESEDAAYYFCQHSRELPFTFGQGTKVEIK

— US20210253727A1 (CORVUS PHARMACEUTICALS, published 2021)
